Assay results reported in patent publication US10919943B2, “Mutant proteins enabling agrochemical control of plant gene expression” (The Regents of the University of California, priority 2016, dated 2021).

What was measured:
pUAS_GFP_mandi = assay: Mandipropamid control of transcription, pUAS_GFP_mandi transient assay, anti-GFP Western blot; format: in vivo, N. benthamiana; details: 50 μM mandipropamid, 24 hours; FIG. 14
Procedure: To establish if the orthogonal mandipropamid response module could be used to control transcriptional responses in vivo, we designed an experimental system where PYR1*^-MANDI was fused to the GAL4 AD, and HAB1* fused to its BD. Nuclear export sequences were added to the BD-HAB1* component to reduce its access to the nucleus in the absence of mandipropamid and thereby reduce background transcription from the UAS. The constructs were assembled into a plant transformation vector along with a GAL4-responsive UAS in front of a CaMV minimal promoter driving GFP. The plant transformation vector used was a derivative of pCB308 (Xiang, Han, Lutziger, Wang, & Oliver, 1999) in which a kanamycin resistance marker cassette replaces the vector's centrally located uidA and bar expression cassettes. […]
The resultant construct (pUAS_GFP_mandi) was tested using transient assays in N. benthamiana, as described above. […] 24 hours later, leaf tissue was collected, frozen in liquid N2, and homogenized by bead beating using Precellys instrument (Bertin Technologies), for 6000 rpm for 30 seconds and then resuspended in SDS sample buffer containing protease inhibitor, separated by SDS-PAGE, electro-blotted onto nitrocellulose membrane and detected using an anti-GFP antibody as described in Example 4 above.

HAB1 = assay: In vitro PP2C assay, ligand-promoted inhibition of GST-HAB1 by receptor; format: biochemical, Arabidopsis; details: FIG. 9
Excerpt: In the presence of ABA, wild type PYR1 binds to HAB1 and docks into its active site, which inhibits its enzymatic activity by blocking access of substrates. To characterize the orthogonal PYR1^! and HAB1^! interaction biochemically, we produced recombinant forms of each protein in E. coli, along with the wild type form, and tested the wild type and orthogonal mutant for their ability to inhibit HAB1 and HAB1^! activities in vitro. We cloned PYR1^! into pET28 to generate 6×-His tagged receptor and cloned HAB1^! into pGEX-4T-1 to create a GST-fusion protein. The previously constructed (S.-Y. Park et al., 2009) wild type 6×-His-PYR1 and GST-HAB1 constructs were used for producing recombinant wild type proteins. The 6×-His-tagged receptors and GST-tagged PP2Cs were expressed and purified as previously described. Briefly, the proteins were expressed in BL21 [DE3]pLysS E. coli host cells at 18° C. overnight. Fusion proteins were purified from sonicated lysates using Ni-NTA agarose (Qiagen, USA) or Pierce™ Glutathione Agarose (Thermo Scientific) according to the manufacturer's instructions. PP2C assays were conducted in 96-well polystyrene flat-bottom microtitre plates (Greiner). […] The plates were read using a Victor 2 plate reader (PerkinElmer) (355 nm excitation, 460 nm emission) and assays run in triplicate. The PP2C activity values reported are expressed as percent control values, which were calculated by including the carrier solvent (1% DMSO) and the specific receptor assayed, but no ligand. […]
According to our current understanding, in order for ABA signaling to be initiated in vivo, PP2C activity must be inhibited to enable accumulation of active SnRK2 kinases. […] 4-methylumbeliferyl phosphate was added (1 mM final concentration) was added to the reactions after 30 minutes equilibration and plates were read by fluorimetry. The PP2C activity values reported are expressed as percent control values, which was calculated by including the carrier solvent (1% DMSO) and the specific receptor assayed, but no ligand.

Molecule | GFP production (pUAS_GFP_mandi) | inhibition of HAB1 enzymatic activity (HAB1; in response to ABA) | inhibition of wild type HAB1 enzymatic activity (HAB1; in response to mandipropamid, 100 nM receptor, 50 nM GST-HAB1)
C#CCOc1ccc(CCNC(=O)C(OCC#C)c2ccc(Cl)cc2)cc1OC (stereo not drawn) [mandipropamid] | mandipropamid inducible GFP production | – | –
PYR1*^-MANDI: PYR1 mutant with 9 mutations, most sensitive to mandipropamid (protein, listed as Arabidopsis thaliana) MPSELTPEERSELKNSIAEFHTYQLDPGSCSSLHAQRIHAPPELVWSIVRRFDKPQTHRHFIKSCSVEQNFEMRVGCTRDIIVISGLPANTSTERLDILDDERRVTGASIIGGEHRLTNYKGVTTVHRFEKENRIWTVVLESYVVDMPEGNSEDDTRIVVDDVVKLNLQKLATVAEAMARNSGDGSGSQVT | – | does not inhibit | does not substantially inhibit
